From PMC545490, “Mapping and mutation of the conserved DNA polymerase interaction motif (DPIM) located in the C-terminal domain of fission yeast DNA polymerase δ subunit Cdc27” (BMC Molecular Biology, 2004)

Target: T1, LexA-Pol1-278-527 (S. pombe, UniProt P28040 278-527)
T1 construct: Pol1, catalytic subunit of DNA polymerase α, S. pombe, amino acids 278–527; source: yeast two-hybrid fusion (pBTM116, S. cerevisiae CTY10-5d)
T1 sequence (looked up): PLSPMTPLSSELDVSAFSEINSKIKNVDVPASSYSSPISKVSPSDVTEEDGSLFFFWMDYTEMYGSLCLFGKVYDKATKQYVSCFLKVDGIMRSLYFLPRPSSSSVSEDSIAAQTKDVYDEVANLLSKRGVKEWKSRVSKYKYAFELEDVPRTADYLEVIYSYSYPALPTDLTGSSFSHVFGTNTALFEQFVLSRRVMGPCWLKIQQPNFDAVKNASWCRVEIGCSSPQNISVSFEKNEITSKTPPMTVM
Assay: two-hybrid; Gal4 AD prey (pACT2) and LexA bait (pBTM116) in S. cerevisiae lexA op-lacZ strain CTY10-5d; β-galactosidase activity in Miller units
Details: partners not purified

strength of the interaction, percent of the wild-type value: ~10 % of wild-type
B1: Gal4-Cdc27-273-352-P7 (domain or fragment, S. pombe, UniProt P30261 273-352, looked up)
chain: TEAKSAAPDEPQEIIKSVSGGKRRGKRKVKKYATTKDEEGFLVTKEEEVWESFSAAANISTGTSNVVRNKPTTVNIATKK
notes: positions worked out from oligonucleotides CDC27-P6F and CDC27-P7F and the printed DEE 309–311; also called Cdc27-P7; source: yeast two-hybrid fusion (pACT2, S. cerevisiae CTY10-5d)
